Measurements from patent US5824484, “RXR homodimer formation” (La Jolla Cancer Research Foundation).

What was measured:
RXR alpha homodimer [1] = molecular target: T1, RXR alpha homodimer (UniProt P19793 P19793:1-462); assay: EMSA; with or without 9-cis-RA; conditions: chain copies: 2 (stated); label: 32P
Method: (§1) (a) In vitro synthesized RXRα was incubated either with (+) or without (−) indicated hormones (10^-7M 9-cis-RA; 10^-6M RA; 10^-6M T_3) in the presence or absence of in vitro synthesized TRα or RARβ for 30 min at room temperature. After this preincubation, the reaction mixtures were analyzed by gel retardation assay using ^32P-labeled TREpal as probe. Lane 1 represents the nonspecific binding of unprogrammed reticulocyte lysate. Open triangles indicate the nonspecific complex observed with unprogrammed reticulocyte lysate. Solid triangles indicate the specific TRα-RXRα heterodimer binding. Arrows indicate specific RXRα homodimer binding. The RXRα/RARβ heterodimer migrates at the same position as the RXRα homodimer. For comparison, the effect of 9-cis-RA on RARβ binding is shown.
(§2) FIGS. 4a and 4c show the response element specific binding of RXR homodimer. The effect of 9-cis-RA on RXR binding on RA specific response elements (a), T_3 specific response elements (b), or estrogen specific response element (c) was analyzed by gel retardation assays as described in FIG. 1a. For comparison, the binding of RXR/RAR heterodimer (a), RXR/TR heterodimer (b) or estrogen receptor (c) is shown. Open triangles indicate the nonspecific binding of unprogrammed reticulocyte lysate. Solid triangle indicates the RAR/RXR heterodimer complex (a), TR/RXR heterodimer complex (b) or ER complexes (c). […]

[2] = molecular target: TR alpha/RXR alpha heterodimer (UniProt P10827-2;P19793 P10827-2:1-410,P19793:1-462); assay: EMSA; conditions: label: 32P
Sequence of TR alpha/RXR alpha heterodimer (P10827 other isoform, or with tags, fused parts or gaps, chain 1 of 2): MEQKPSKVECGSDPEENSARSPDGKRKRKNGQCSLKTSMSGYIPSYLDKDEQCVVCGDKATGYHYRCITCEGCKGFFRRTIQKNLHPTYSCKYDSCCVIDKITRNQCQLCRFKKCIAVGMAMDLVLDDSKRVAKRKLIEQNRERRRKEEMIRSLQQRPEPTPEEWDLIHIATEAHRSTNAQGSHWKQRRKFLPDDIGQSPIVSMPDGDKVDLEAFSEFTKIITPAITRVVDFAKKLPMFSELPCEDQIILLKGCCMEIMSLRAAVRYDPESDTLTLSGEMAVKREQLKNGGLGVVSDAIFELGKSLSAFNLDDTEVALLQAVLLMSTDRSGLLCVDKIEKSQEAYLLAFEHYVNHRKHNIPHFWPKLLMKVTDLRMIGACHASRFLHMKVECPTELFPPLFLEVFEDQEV
Sequence of TR alpha/RXR alpha heterodimer (P19793 whole entry, chain 2 of 2): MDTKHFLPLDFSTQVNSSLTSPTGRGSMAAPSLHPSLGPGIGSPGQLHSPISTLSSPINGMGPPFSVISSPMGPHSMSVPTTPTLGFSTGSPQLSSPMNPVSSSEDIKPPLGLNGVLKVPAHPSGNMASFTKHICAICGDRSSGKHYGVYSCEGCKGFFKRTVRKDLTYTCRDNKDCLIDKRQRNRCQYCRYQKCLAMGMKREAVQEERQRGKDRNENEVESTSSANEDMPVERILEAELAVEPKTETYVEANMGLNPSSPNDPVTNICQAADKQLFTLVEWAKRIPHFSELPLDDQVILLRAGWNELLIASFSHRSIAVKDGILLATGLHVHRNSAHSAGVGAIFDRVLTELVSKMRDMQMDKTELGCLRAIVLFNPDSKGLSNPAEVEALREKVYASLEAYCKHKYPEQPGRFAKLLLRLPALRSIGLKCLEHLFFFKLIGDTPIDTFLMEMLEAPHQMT
Method: as §1, §2

RXR alpha homodimer [3] = molecular target: T1, RXR alpha homodimer; assay: EMSA; with 9-cis-RA; conditions: chain copies: 2 (stated); label: 32P
Method: as §1, §2

RXR alpha homodimer [4] = molecular target: T1, RXR alpha homodimer; assay: EMSA; with 9-cis-RA (effect from 1e-9 M, optimal 1e-8 M); little binding without ligand; also induced by SR11217 and SR11237; conditions: chain copies: 2 (stated); label: 32P
Method: as §1

RXR alpha homodimer [5] = molecular target: T1, RXR alpha homodimer; assay: EMSA; with 9-cis-RA; complex slower than heterodimer; reduced when RAR present; conditions: chain copies: 2 (stated); label: 32P
Method: as §1
(§3) (b) The effect of 9-cis-RA on RXR homodimer binding of ApoAI-RARE or CRBPII-RARE was analyzed essentially as described in FIG. 1a. Lane 1 represents the nonspecific binding of unprogrammed reticulocyte lysate, which are indicated by the open triangles. Solid triangles indicate the RAR/RXR heterodimer complex. Arrows indicate the specific RXR binding complex.
(§4) Gel retardation assays using in vitro synthesized receptor protein are described in the FIG. 1 legend. The following oligonucleotides and their complements were used as probes in FIGS. 3 and 4.

Estrogen receptor = Estrogen receptor (UniProt P03372 P03372:1-595); assay: EMSA; ER complex shown for comparison; conditions: chain copies: 2 (inferred); label: 32P
Sequence of Estrogen receptor (P03372 whole entry, one chain of several): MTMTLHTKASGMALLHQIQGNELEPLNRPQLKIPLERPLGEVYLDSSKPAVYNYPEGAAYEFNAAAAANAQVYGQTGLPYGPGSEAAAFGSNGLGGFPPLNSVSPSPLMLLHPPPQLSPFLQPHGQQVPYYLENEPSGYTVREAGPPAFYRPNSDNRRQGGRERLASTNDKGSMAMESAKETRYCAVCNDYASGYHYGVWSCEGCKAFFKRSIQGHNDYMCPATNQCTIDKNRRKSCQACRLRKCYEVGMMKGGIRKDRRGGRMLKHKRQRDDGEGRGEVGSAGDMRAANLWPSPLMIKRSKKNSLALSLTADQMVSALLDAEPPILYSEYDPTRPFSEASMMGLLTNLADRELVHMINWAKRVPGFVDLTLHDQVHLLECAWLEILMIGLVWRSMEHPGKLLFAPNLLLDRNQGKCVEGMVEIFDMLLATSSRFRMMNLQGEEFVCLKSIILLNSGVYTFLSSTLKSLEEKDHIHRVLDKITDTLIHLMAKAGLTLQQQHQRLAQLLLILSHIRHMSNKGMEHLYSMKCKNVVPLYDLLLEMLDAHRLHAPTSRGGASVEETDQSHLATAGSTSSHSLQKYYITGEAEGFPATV
Method: as §1, §2

RAR beta = molecular target: T2, RAR beta (UniProt P10826-2 P10826-2:1-448); assay: EMSA; RAR homodimer not induced by 9-cis-RA; conditions: label: 32P
T2 sequence: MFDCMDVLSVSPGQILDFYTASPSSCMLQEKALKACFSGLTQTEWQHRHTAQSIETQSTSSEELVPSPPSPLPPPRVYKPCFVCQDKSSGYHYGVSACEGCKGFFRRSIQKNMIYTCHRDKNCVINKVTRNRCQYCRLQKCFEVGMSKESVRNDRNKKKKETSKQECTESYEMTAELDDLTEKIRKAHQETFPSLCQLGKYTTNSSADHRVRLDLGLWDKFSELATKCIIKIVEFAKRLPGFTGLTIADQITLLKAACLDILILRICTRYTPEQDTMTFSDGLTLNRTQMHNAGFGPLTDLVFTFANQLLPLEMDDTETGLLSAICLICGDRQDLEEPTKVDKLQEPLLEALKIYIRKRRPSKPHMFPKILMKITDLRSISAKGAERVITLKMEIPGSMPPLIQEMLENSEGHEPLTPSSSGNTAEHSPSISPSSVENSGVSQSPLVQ
Method: as §1, §3, §4

RXR alpha homodimer [6] = molecular target: T1, RXR alpha homodimer; assay: EMSA; strong with 9-cis-RA, lesser with 1e-6 M RA; conditions: chain copies: 2 (stated); label: 32P
Method: as §1, §3, §4

T1 sequence (P19793 whole entry, one chain of several): as the sequence (P19793 whole entry, chain 2 of 2) above

B1: ME-TRE (dsDNA)
DNA 1: GATCCAGGACGTTGGGGTTAGGGGAGGACAGTGGGATC
DNA 2: GATCCCACTGTCCTCCCCTAACCCCAACGTCCTGGATC
B1: no binding (RXR alpha homodimer [1]); binds [2].

B2: DR-5 (dsDNA)
DNA 1: GATCTCAGGTCATCCTCAGGTCAGATC
DNA 2: GATCTGACCTGAGGATGACCTGAGATC
B2: no binding (RXR alpha homodimer [3]).

B3: CRBPI-RARE (dsDNA)
DNA 1: GATCCAGGTCAAAAAGTCAGGATC
DNA 2: GATCCTGACTTTTTGACCTGGATC
B3: no binding (RXR alpha homodimer [3]).

B4: MHC-TRE (dsDNA)
DNA 1: GATCCTGGAGGTGACAGGAGGACAGCGATC
DNA 2: GATCGCTGTCCTCCTGTCACCTCCAGGATC
B4: no binding (RXR alpha homodimer [1]); binds [2].

B5: TREpal (dsDNA)
DNA 1: GATCTCAGGTCATGACCTGAGATC
DNA 2: GATCTCAGGTCATGACCTGAGATC
B5: binds (RXR alpha homodimer [4]).

B6: CRBPII-RARE (dsDNA)
DNA 1: GATCCAGGTCACAGGTCACAGGTCACAGTTCAAGATC
DNA 2: GATCTTGAACTGTGACCTGTGACCTGTGACCTGGATC
B6: binds (RXR alpha homodimer [5]).

B7: ERE (dsDNA)
DNA 1: GATCTCAGGTCACTGTGACCTGAGATC
DNA 2: GATCTCAGGTCACAGTGACCTGAGATC
B7: binds (Estrogen receptor).

B8: ApoAI-RARE (dsDNA)
DNA 1: GATCAGGGCAGGGGTCAAGGGTTCAGTGATC
DNA 2: GATCACTGAACCCTTGACCCCTGCCCTGATC
B8: no binding (RAR beta); binds (RXR alpha homodimer [6]).
